Reference: patent publication US20060148055A1 (published 2006)
No end group written: not given here. MDA = malondialdehyde

Biological target: scavenger LDL receptor in monocytes
Assay: cell-based or functional assay

Row | Binder | Mean fluorescence (Ex 520 nm, Em 590 nm) of DiI-labelled oxidised LDL (50 ug) taken up by lipid-starved U937 monocytes with 500 ug peptide as competitor; oxidised LDL alone 3433, Control 1657
1 | ALQYKLEGTTR (also: multiple antigenic peptide, branching core and copy number not given here, MDA-conjugated, site not given here) [multiple antigenic peptide SEQ ID NO: 1 MDA-conjugated (mapped peptide)] | 2610 fluorescence (unit not printed)
2 | ALQYK(MDA)LEGTTR (not fully specified) [peptide SEQ ID NO: 1 MDA-conjugated] | 2130 fluorescence (unit not printed)
3 | RLTRKRGLKLA [peptide SEQ ID NO: 2] | 1410 fluorescence (unit not printed)

Continued, values first:

Row | Mean fluorescence (Ex 520 nm, Em 590 nm) of DiI-labelled oxidised LDL (50 ug) taken up by lipid-starved U937 monocytes with 500 ug peptide as competitor; oxidised LDL alone 3433, Control 1657 | Binder
4 | 2000 fluorescence (unit not printed) | ALSLSNK(MDA)FVEG [peptide SEQ ID NO: 3 MDA-conjugated]
5 | 1760 fluorescence (unit not printed) | ALSLSNKFVEG [peptide SEQ ID NO: 3]
6 | 2450 fluorescence (unit not printed) | RLTRK(MDA)RGLKLA [peptide SEQ ID NO: 2 MDA-conjugated]
